Laboratory results: the supplement of paper PMC10724198
± gives the standard deviation of the averaged measurements.

Experiments:
[1] = tested on: Saccharomyces cerevisiae; experiment: protein stability index of tFT-peptide fusion (C-terminal peptide) (PSI (0-1 scale)); higher = more stable (slower turnover)
Method: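 MPS profiling in S. cerevisiae of the tFT-X12 degron library: putative degron peptides plus stable controls, 12 aa, fused to the C-terminus of a sfGFP-mCherry timer. Cells are FACS-sorted into 8 mCherry/sfGFP bins and deep-sequenced. PSI runs from 0 (unstable) to 1 (stable). Backgrounds are wild type, das1Δ and doa10Δ at 30 °C, and wild type, das1Δ, cdc34-1 and cdc53-1 at 37 °C; 2-3 technical replicates each.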

[2] = tested on: Saccharomyces cerevisiae; experiment: as above; conditions: genetic background: wild type; temperature: 30 C
[3] = genetic background: cdc34-1, temperature: 37 C
[4] = genetic background: cdc53-1, temperature: 37 C
[5] = genetic background: das1 deletion, temperature: 30 C
[6] = genetic background: das1 deletion, temperature: 37 C
[7] = genetic background: doa10 deletion, temperature: 30 C
[8] = genetic background: wild type, temperature: 30 C
[9] = genetic background: wild type, temperature: 37 C
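Further: PSI is a weighted mean of sequencing reads over stability bins, variants kept only with over 10 reads, mCherry proximal and sfGFP distal, peptide attached via GGGS linker.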

Sequence	protein stability index [1, 3]	protein stability index [1, 4]	protein stability index [1, 5]	protein stability index [1, 6]	protein stability index [1, 7]	protein stability index [1, 8]	protein stability index [1, 9]	protein stability index [2]
VCNYRKLIWKHH	0.52 ± 0.024	0.661 ± 0.047	0.653 ± 0.015	0.746 ± 0.029	0.0622 ± 0.031	0.0668 ± 0.033	0.13 ± 0.012	0.181 ± 0.023
VGVIGWGGLGVG	0.486 ± 0.048	0.5527 ± 0.0051	0.487 ± 0.019	0.549 ± 0.015	0.4929 ± 0.0046	0.485 ± 0.014	0.542 ± 0.023	0.492 ± 0.00099
IHCLSIVVHGLS	0.527 ± 0.045	0.569 ± 0.047	0.471 ± 0.024	0.588 ± 0.0099	0.48 ± 0.016	0.475 ± 0.019	0.563 ± 0.027	0.499 ± 0.043
GLYLVFMGFVPC	0.471 ± 0.019	0.52714 ± 4.2e-05	0.33 ± 0.053	0.575 ± 0.032	0.3169 ± 0.0022	0.325 ± 0.034	0.505 ± 0.0082	0.47 ± 0.029
CPVSRHLLVLYW	0.413 ± 0.0094	0.4424 ± 0.0029	0.345 ± 0.029	0.4933 ± 0.0031	0.402 ± 0.017	0.331 ± 0.019	0.47 ± 0.012	0.432 ± 0.029
HGVYSVLRFFFC	0.664 ± 0.038	0.723 ± 0.021	0.659 ± 0.011	0.671 ± 0.03	0.329 ± 0.0035	0.365 ± 0.017	0.579 ± 0.023	0.453 ± 0.0086
LDLSSLRCRYLL	0.639 ± 0.058	0.725 ± 0.034	0.657 ± 0.021	0.765 ± 0.021	0.185 ± 0.011	0.214 ± 0.014	0.427 ± 0.0081	0.343 ± 0.099
VFFCLFWFFCSF	0.54 ± 0.009	0.571 ± 0.057	0.482 ± 0.031	0.54 ± 0.0084	0.454 ± 0.0066	0.453 ± 0.017	0.492 ± 0.012	0.51 ± 0.12
IERLRLRTRIIC	0.469 ± 0.053	0.481 ± 0.049	0.423 ± 0.021	0.542 ± 0.0096	0.127 ± 0.015	0.131 ± 0.036	0.13441 ± 5e-06	0.2349 ± 0.0012
SSRRVVLPLLVA	0.336 ± 0.057	0.402 ± 0.0094	0.309 ± 0.032	0.481 ± 0.0058	0.123 ± 0.011	0.136 ± 0.033	0.131 ± 0.027	0.202 ± 0.027
LMWVFPRVVWLY	0.123 ± 0.037	0.102 ± 0.016	0.244 ± 0.042	0.321 ± 0.022	0.0838 ± 0.0041	0.0646 ± 0.0052	0.0611 ± 0.00062	0.0903 ± 0.014
VRNKFSYVLRLN	0.488 ± 0.024	0.678 ± 0.014	0.615 ± 0.016	0.747 ± 0.0094	0.0804 ± 0.019	0.11 ± 0.029	0.138 ± 0.037	0.179 ± 0.016
DILCGRCMIVGA	0.592 ± 0.045	0.573 ± 0.023	0.415 ± 0.041	0.6044 ± 0.0056	0.393 ± 0.0059	0.422 ± 0.011	0.555 ± 0.013	0.495 ± 0.018
VAFVVALSLIFL	0.327 ± 0.019	0.443 ± 0.014	0.306 ± 0.028	0.424 ± 0.0062	0.281 ± 0.019	0.333 ± 0.043	0.43 ± 0.023	0.386 ± 0.0059
GGSKIGFTVGGG	0.686 ± 0.024	0.741 ± 0.017	0.645 ± 0.013	0.738 ± 0.013	0.642 ± 0.018	0.664 ± 0.02	0.725 ± 0.0018	0.721 ± 0.018
LFFSPRRLSPPT	0.705 ± 0.024	0.7533 ± 0.0049	0.695 ± 0.03	0.778 ± 0.022	0.688 ± 0.019	0.695 ± 0.015	0.746 ± 0.022	0.748 ± 0.011
YLFFHMVVLVVV	0.0358 ± 0.0027	0.0745 ± 0.0059	0.118 ± 0.043	0.182 ± 0.0041	0.0943 ± 0.019	0.105 ± 0.048	0.149 ± 0.019	0.157 ± 0.018
ERRWKRKVIGLC	0.632 ± 0.034	0.736 ± 0.031	0.594 ± 0.015	0.734 ± 0.0071	0.115 ± 0.025	0.131 ± 0.0095	0.214 ± 0.024	0.274 ± 0.047
VALSILCVFFFF	0.253 ± 0.021	0.357 ± 0.01	0.272 ± 0.035	0.4457 ± 0.0032	0.24 ± 0.025	0.273 ± 0.022	0.383 ± 0.0064	0.309 ± 0.055
